Substitutions are numbered along the chain they refer to.

As a reminder, the Kd is the concentration at which binding is half-saturated. Lower therefore signals tighter binding.

The chains are these.
B1: SHP2 N-SH2, Q06124 (protein)
chain: WFHPNITGVEAENLLLTRGVDGSFLARPSKSNPGDFTLSVRRNGAVTHIKVQNTGDYYDLYGGEKFATLAELVQYYMEHHGQLKEKNGDVIELKYPL
B2: SHP2 N-SH2, Q06124 (protein)
chain: B1 chain with L14A, V51I
B3: SHP2 N-SH2, Q06124 (protein)
chain: B1 chain with V51I, A70G
B4: SHP2 N-SH2, Q06124 (protein)
chain: B1 chain with V51I, T54S
B5: SHP2 N-SH2, Q06124 (protein)
chain: B1 chain with A26G, V51I
B6: SHP2 N-SH2, Q06124 (protein)
chain: B1 chain with T17S, V51I
B7: SHP2 N-SH2, Q06124 (protein)
chain: B1 chain with V51I, A67G
B8: SHP2 N-SH2, Q06124 (protein)
chain: B1 chain with A45G, V51I
B9: SHP2 N-SH2, Q06124 (protein)
chain: B1 chain with V40A, V51I
B10: SHP2 N-SH2, Q06124 (protein)
chain: B1 chain with T37S, V51I
B11: SHP2 N-SH2, Q06124 (protein)
chain: B1 chain with V51I, L83A
B12: SHP2 N-SH2, Q06124 (protein)
chain: B1 chain with I49V, V51I
B13: SHP2 N-SH2, Q06124 (protein)
chain: B1 chain with V51I, I91V
B14: SHP2 N-SH2, Q06124 (protein)
chain: B1 chain with I6V, V51I
B15: SHP2 N-SH2, Q06124 (protein)
chain: B1 chain with T7S, V51I
B16: SHP2 N-SH2, Q06124 (protein)
chain: B1 chain with V51I, V73A
B17: SHP2 N-SH2, Q06124 (protein)
chain: B1 chain with V9A, V51I
B18: SHP2 N-SH2, Q06124 (protein)
chain: B1 chain with T47S, V51I
B19: SHP2 N-SH2, Q06124 (protein)
chain: B1 chain with V51I, T68S
B20: SHP2 N-SH2, Q06124 (protein)
chain: B1 chain with V51I, L60A
B21: SHP2 N-SH2, Q06124 (protein)
chain: B1 chain with V51I, L69A
B22: SHP2 N-SH2, Q06124 (protein)
chain: B1 chain with V20A, V51I
B23: SHP2 N-SH2, Q06124 (protein)
chain: B1 chain with V51I, V90A

For this assay, the target named is Gab2 (Homo sapiens). Kind of assay: flow.
On to B1, for which the dissociation constant Kd was 30 nM.

For the molecule B2, the Kd worked out at 170 nM.

B3 registered a dissociation constant (Kd) of 110 nM.

For the molecule B4, the Kd was 120 nM.

For the molecule B5, the Kd was determined as 70 nM.

As for B6, the Kd was 100 nM.

In turn, B7 returned a Kd of 170 nM.

B8 had a Kd of 70 nM.

In turn, B9 displayed a Kd of 230 nM.

As to B10, the Kd is 5 nM.

Take B11: the Kd came to 730 nM.

The molecule B12 showed a dissociation constant Kd of 150 nM.

B13 returned a Kd of 100 nM.

For the molecule B14, the Kd came out at 80 nM.

On to B15, for which the dissociation constant (Kd) stood at 80 nM.

As to B16, the Kd came out at 190 nM.

The molecule B17 yielded a Kd of 160 nM.

Consider B18, for which the Kd was found to be 10 nM.

In turn, B19 gave a Kd of 110 nM.

B20 came in with a Kd of 860 nM.

With B21, the Kd was 210 nM.

For B22, the Kd is 100 nM.

B23 displayed a Kd of 130 nM.

Source of the values: article PMC7345789.
